Experiment: label from the status in PepcDB records
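Note: failed if final PepcDB status was selected cloned or expressed and not failed if soluble or beyond.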

Sequence | protein production
MNVIYPLAVPKGRRLSCEVCEAPAERMCTACTVTYYCGPVHQKADWDSIHAKICQLLIPLRTTMPFYNSEEERQHGLQQLQRRQKHLIEFCYTVAQKYLFEGRHEDAVPAALHSLRFRMNVHGLSSVELVPAYLLLAEASLGLGRIVQAEEYLSQAQWTVLKSTDCSNATHSLLHRNLGLLYIAKKNLDEARYHLANDIYFASCAYGTEDIRTSGGYFHLANIFYGLKKMELADTLYTKVSEIWYTYLNSHYQALLEARSQQTDLLGKQFVNDTGLDEAQEAEAIRILTSTLIIQESTSTKAPQKSILILKTLSILYYLMLECSKAKEYAMKALSLAETYVSEEEQRFIQELLSVISAEEKQP | failed
MNVLRRFHAWRNQAPLWWWVGLRMSALAVVTMMVIAFGMWCYFNLRYSLILSNVPAEPRAEISQLIEQPRANQARLWELFQRYYDIENFLPGLANPDWWMLGAMMTISVPVILFCGLLASRPLSRQFSQVAFAAHRVSDGDFGARAQVVRGAPDELTALADDFNTMSGRLQQYERELRDSSAMLAHELRTPLNAAMGRVQGMLDDVFPREPEQLRLVHRQLEQINRLIGDLHLVSLARAGQLVLEPESVELRELVAERIEWAGPALREAQMTIHYPTHPALRLHADRHRLGQVLSILIDNALRYAAAGKLLEIEVRRDGTGVQLTVGDRGPGVAPAQLPHLLDRFWRADSSRARHSGGSGLGLAIASAICQAHDGQLVVSNRPGGGLLASVQLPLGR | failed
MNVLSLGSSSGVVWGRVPITAPAGAATGVTSRADAHSQMRRYAQTGPTAKLSSAPMTTMWGAPLHRRWRGSRLRDPRQAKFLTLASLKWVLANRAYTPWYLVRYWRLLRFKLANPHIITRGMVFLGKGVEIHATPELAQLEIGRWVHIGDKNTIRAHEGSLRFGDKVVLGRDNVINTYLDIEIGDSVLMADWCYICDFDHRMDDITLPIKDQGIIKSPVRIGPDTWIGVKVSVLRGTTIGRGCVLGSHAVVRGAIPDYSIAVGAPAKVVKNRQLSWEASAAQRAELAAALADIERKKAAR | failed
MNVPILPTISTSCIVISAILVAIGWALIWKRQVHKHKNIMLWAAFFALTFFIIYAARTIFIGNTAFGGPSSIKVYYTIFLVFHIILATVGGVLGLIQIILAFKDKLHIHRKIGPWASIIWFFTAITGVAVYVLLYVLYPGGETTSLLKATLGL | failed
MNWSIPNILTVLRLLAAPGVAVMFLYFHRPWADWFALTLFILAAVTDFFDGYLARLWKQESKFGAMLDPIADKAMVVIALVIITGYSGMNPWLILPVTLILFREVFVSGLREFLGAKASLLKVTKLAKWKTTAQMVAIAILFLGTGLEHLEGIARQGMTWEQYARAVSAGEADPIRSCGMHGCSSYATWLGLALIWIAAALTFITGWDYFRKALPYLKDEK | not failed
MNYAFVVQARLGSTRLPGKILKPFYGNQSILDLMVHKLSAISNIPVIIATTNSVINEPIEKKALALGVKCFRGEENDVLKRFIDVAEYFDIQGIFRICSDNPFLDVHAARQLVEIAMKSCNDYISFDIDGTPSIKTHFGFWGEFVTLDALKRVIGFTDDLLYREHVTNYIYSHPELFNIQWISGSPVVSKHHNIRLTIDTLEDFSVAQRIYRDLQEKRVEISIEVIVDYVRRHAEYIQLMKQQIKKNSKLEHHHHHH | not failed
MNYDDPKKKVGRNIKRLRLKAGIKSQAALAELCGWKSQSRVGNYEAGTRAVSAIDAETLAKVLNVTPAEILYGENNKDDDFVSMPSAQYSSGPYEEEDPFQLFKPKQELQNAEWHAGFELWDGDTPLRDDEVALPFYREVELAAGSGSTFVQENGGCKLRFAKSTLKKSRVEPSNAACVTVSGNSMLPVLRHGTTVGVDTSKKSIIDGEMYAIDHDGMLRVKMLYRTPGGGIRIKSYNNDEFPDEFIPPEKASDIKIIGWVFWWSVLNVWNN | failed
MNYDMSSYFEDPEFKEALAKYEGMVENHTPAYFEADELIDIAEYYTLKGRHKDADKAIDLTLQLHPENTDALVFRIRSLMLQNKKEEAKVVAQLIANSTDRECRFLQADMLMEEDRIEEAEEIFKQLVMDEEYEVDTLLDIIQDYTNANQEEYAGQWVDCLFAHSDMQTLPKTNQRLRDVLCDYYSTFNKPDLAIPYLNMTLNEYPYSIEHWNELGKCHLQQCQYEEANEALDFALAIDDENTDSLTLKAFGYHQAGNLKESCDYYLRLANVSKNKTKAYLALAQIYLEMRDHASAISYIEKLINRKSGLTDYELAELYSDTALCHAYLGHTENGYKYINQALELNEHDAEIRIAAGRFFTIEAQKSDISEEEQENNLRNAEHQFTRALEFTPKEERFDVLFKIGSLYFDEHNFEYANQYFELINKEFPEDADATYFFLAYGYYHQQESASFMHYLAKIRKEIPDMYATMGTGDTILMTDTYFNEALRAIKEDVSTGKINLNKYL | failed
MNYECLIGVLSCLLVALPKGNCHSISGLNSTLNLPEIRGDQFLYFGFGSNMLIKRIHIQNPSAVRIGPALLPDYRLDFALESAGWSGSVATIVPTQGDHVWGTLWKIDLSNLPDIDSQEGVSQGIYEPRTVYVKLHGESESTPARAYLLTKQPESNLYELPKDSIPLSRQPSKTYLQCLVKGAIESSVPEDYVQRLRSIKHNGQVNSYLERKLELGGVTL | failed
MNYEIIDCIDSGTEYCPCHLAESGNCILCSQLNGKDFCDCVNWKGVCIYQEYTWNHNKAKKERSECICKIIKREEIDNNLIVLTIFIRKKLAEDLLYPGSYVFLRPTKSSRYYSSPISIMEASSDENIIKVIIEVKGIKTKSINELKEKDDIVLKGPYWNGVLGLKNIHSAKEGISLIIARGIGEAPIVPIMKKLYSNGNKVVVIADRGKFKANLIDKYLEEFSSETYNFNTLNKDGELPEDFKDFLLNFIRYNKVNLIHISGPNILTSKILDVVDEDIKISCSNNAKMCCGEGICGACSNIYDDDKMKRMCKVQIDPRYLFKGLRSI | failed
MNYFPDEVIEHVFDFVASHKDRNSISLVCKSWHKIERFSRKEVFIGNCYAINPERLIRRFPCLKSLTLKGKPHFADFNLVPHEWGGFVHPWIEALARSRVGLEELRLKRMVVTDESLDLLSRSFANFKSLVLVSCEGFTTDGLASIAANCRHLRELDLQENEIDDHRGQWLNCFPDSCTTLMSLNFACLKGETNVAALERLVARSPNLKSLKLNRAVPLDALARLMSCAPQLVDLGVGSYENEPDPESFAKLMTAIKKYTSLRSLSGFLEVAPLCLPAFYPICQNLISLNLSYAAEIQGNHLIKLIQLCKRLQRLWILDSIGDKGLAVVAATCKELQELRVFPSDVHGEEDNNASVTEVGLVAISAGCPKLHSILYFCKQMTNAALIAVAKNCPNFIRFRLCILEPHKPDHITFQSLDEGFGAIVQACKGLRRLSVSGLLTDQVFLYIGMYAEQLEMLSIAFAGDTDKGMLYVLNGCKKMRKLEIRDSPFGNAALLADVGRYETMRSLWMSSCEVTLGGCKRLAQNSPRLNVEIINENENNGMEQNEEDEREKVDKLYLYRTVVGTRKDAPPYVRIL | failed
MNYKELLEFNDYAMDLTIRMAHHSTAIENNPLSLAETISILTTEYIPREMPQRAFFEVKNYQNMLFFLLENLNKGQSVDSFFIRELHGILMNFLLPNKGAFKTTDNTILGASFETTPIFKCLWL | failed
MNYKLTLHPGSNPVEEFTSIPHGVTSLDLSLNNLYSISTVELIQAFANTPASVTSLNLSGNSLGFKNSDELVQILAAIPANVTSLNLSGNFLSYKSSDELVKTLAAIPFTITVLDLGWNDFSSKSSSEFKQAFSNLPASITSLNLRGNDLGIKSSDELIQILAAIPANVNSLNLRGNNLASKNCAELAKFLASIPASVTSLDLSANLLGLKSYAELAYIFSSIPNHVVSLNLCLNCLHGPSLENLKLLKDSLKHLQTVYLDYDIVKNMSKEQCKALGAAFPNIQKIILVDKNGKEIHPSHSIPISNLIRELSGKADVPSLLNQCLIFAQKHQTNIEDLNIPDELRESIQTCKPLLEHHHHHH | not failed
MNYSIRLFKIMGIPIELHITFILFLVVIIGLSIMNNSIFWAVLFILLFVSVVLHELGHSYVAKKYGVKIEKILLLPIGGVAMMDKIPKEGELRIGIAGPLVSFIIGIVLLIVSQFFDININGYPLLYTLSLLNLMLGGFNLIPAFPMDGGRILRAILSKKYGYLKSTKIAANIGKSLALIMLLFGLLSMNIILILVSLFVYFGAEQESRVVEVETIFKNIKAKDIMTPNPVYVTPDMSIEEFLDFMLKHKYFGYPVVENGKLVGCIGIGNIHKKEGTVRDYMEKPVVVSEDTDIKEILRKMANTDRVFVVEGGKLKGIISKTDILRAMSILELKEELKD | failed
MNYSSRQQPKRNWLRKVDWILVLVISLLALTSVILISSAMGGGQYSANFSIRQIIYYIFGAIIAFLIMIISPKKIKNNTYILYSIFCVLLIGLLILPETSITPIINGAKSWYSFGPISIQPSEFMKIILILALAKTISKHNQFTFNKSFQSDLMLFFKILGVSIIPMALILLQNDLGTTLVLCAIIAGVMLVSGITWRILAPLFIVAFVSGSSIILAIIYKPSLIENLLGIKMYQMGRINSWLDPYSYSSGDGYHLTESLKAIGSGQLLGKGYNHGEVYIPENHTDFIFSVIGEEMGFIGSVLLILLFLFLIFHLIRLASKIDSQFNKVFIIGYVSLIVFHVLQNIGMTVQLLPITGIPLPFISYGGSSLWSLMTGIGVVLSIYYHEPQRYEITTLSKKSNTI | failed
MPADWLARPRFVSAFSIVVFLLLAAFGEYVVRIEAERLRVIAQNQVLAEASTIRARLEGELYSTLYLANGLSSYVSAHKALDPAAVKIILSTVFGYGRHLRNIVLAPDNEVRFTYPLKGNEKVIGFRYQDNAEQWRAVKRAMETRTTVLSGPVDLVQGGRGLISRTPVFLPDGEYWGIVALVINIDSLFATINKDRRPARITWALRSNDETGEKGRILFGDAWLFDHDHVNLSIAIPGGSWELAATPAEGWRPPGKRLLVLRIATLALSGLIAALVFLVLFERIRIQHLALHDSLTDLPNRRLLDDRLERAIAQARRNRDGFALLYVDLDDFKPINDRFGHRAGDHVLVEIARRLRGALRRADTVARVGGDEFMLILPGARGRHGAMTVVQKLAGIICQPIGYKGQYLNVSASIGVSTYPENGVTADALISHADGSMYRFKQHRKSPTDINGNQRSGAVSSEVS | failed
MPAIEVGETFTETRTFRPEDVDQFTALSGDDQPRHTEPDGDGRRMVQGLLTASLLTSIGGDLEVLASRMDLQFQRPVYTGETLVCELTVVSADPHTDGGVALVGDVAVRRVNRDDNSGQADTAAPNSADSAPAGTVVLEATVEGLIRE | failed
MPALSGLHLAPSVASFLCLAWTVALYFAVKPLYQRLPRIWLSPAIVVPALTIPLLLITGIPYAEYVADTRWMVWLLGPATIAFAVPIYEHREIVRRHWIALALGVIAGMLVAMLSARLLAEAFHFSSEVSSSLMARSVSTPFAVAVVAHTGGSAELVSLFTVMTGLAGMIVGDTVLGLLRLRSPVAQGASLGTAAHGFGTARARQRHAEEGVVASLTMVLAGVLMVIAGPTLTGWVTALVG | failed
MPAPHPDSSVAPTTRLIAERALAAVFQPIVDLGSGTVVGYEGLIRGPRGTDLEPPAALFAQAARDGTTIALEQAAALACLDAFAALGCDGKLFLNFSAGTIVQLVRERERARQLLGRAGVGAERIVIELTEQTAMPDVARIEPAVASLRDAGIQFALDDYGTANASMNLWLRLHPDVVKIDRFFIHDIARDPLKFEAVRAMQHFAHASGAQLIAEGIENASDLIVVRDMGICCVQGFLLGRPNARPSPVVAPAARDAIRTPHIAVFPGAMRTARPAGTIAAKMLVPAPALPRDATSNDVLDLFNRMPGLHAVALVERGRPVALVNRRGFIDRFTLPYHREVFGKKPCLQFANDAPLMIDNATSVEQLAMLLASHDQRYLADGFVITEHGRYLGLGTGESLVRAVTEMRIEAARYANPLTFLPGNIPISAHIDRLLERDAGFHACYVDLNQFKPFNDQYGYWQGDEVLKFAATVLAGVCDPQRDFLGHVGGDDFLVLFQRDDWRARATDAIARFNDGAQRFYTQADRLAGGLRGEDRHGNPAFFGFVTMAIGAVGVPAGAHGAMRYGSDEIASVAALAKRRAKQQPGGLAVVDLDAGRAALRERGEPPLAAAG | failed
MPAQQAEQAANLGLAGFQFLAQGVFAALLLQLHAFEFGARLTADLPLALLVGMLGAEGLFGLARAVFAHPLGGRLGLAARLGPGFAGFHERLYLRNVTQSE | failed
